According to the supplement of paper PMC11865577:

What was measured:
Test in all cases: pull-down binding Z-score (relative to library population); higher = stronger binding
[1] = system: TO-N3-2 (biotin conjugate); conditions: RNA library: Library-2
Summary of the method: (§1)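 Heat-folded RNA library (1 μg, Cy5 or Cy3 end label, phosphate/NaCl/KCl buffer) was captured for 60 min at 25 °C on streptavidin beads displaying 100 pmol of biotin-conjugated small molecule, then washed three times. The bound fraction, eluted in hot SDS, was hybridised to a DNA barcode microarray at 55.5 °C for 20 h. Z-scores for binding were taken against the library mean and standard deviation after beads-only subtraction and trimmed averaging of replicate barcoded probes.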

TO-N3 (biotin conjugate) = conditions: RNA library: Library-2
Summary of the method: as §1

[2] = system: TO-3-N3 (biotin conjugate); conditions: RNA library: Library-2
Summary of the method: as §1

[3] = system: G-clamp-N3 (biotin conjugate); conditions: RNA library: Library-1 (pre-miRNA loops + repeats)
Summary of the method: as §1

[4] = system: TO-3-N3-2 (biotin conjugate); conditions: RNA library: Library-2
Summary of the method: as §1

Sequence | pull-down binding Z-score [1] | pull-down binding Z-score (TO-N3 (biotin conjugate)) | pull-down binding Z-score [2] | pull-down binding Z-score [3] | pull-down binding Z-score [4]
GCUGCUGCCCCAGAGGCCCAGCAGGUGUCCAGAAC [hsa-mir-6750] | 1.93 | 1.18 | 0.55 | -0.884 | 0.49
GCUGCUGGUGCUCAUCUCAGC [hsa-mir-6877] | 0.602 | 0.825 | 0.71 | -0.152 | -0.0239
GCUGCUUGCACUCGUUCAGC [hsa-mir-3661] | 0.863 | 0.1 | -0.0975 | 0.0999 | -0.246
GCUGGAGUAAGGGCACGCCCGGGGCUGC [hsa-mir-4758] | 1.79 | 1.51 | 0.802 | 1.11 | 0.383
GCUGGAUUUCCCAGCUUGACUCUAAC [hsa-mir-200a] | -0.215 | -0.337 | -0.14 | -0.177 | -0.242
GCUGGGCUGAGCUAACCAGGGCUGGGCUGAGC [hsa-mir-4537] | 1.42 | 0.532 | 0.138 | 0.991 | -0.0332
GCUGGGGACUGGAGAA [hsa-mir-4489] | 1.64 | 2.4 | 2.13 | 2.08 | 1.32
GCUGGGGCGCGGGCUUUCGCUUUCAGUCGAGGGCUAGCGAGCGCAGC [hsa-mir-7846] | 1.12 | 1.12 | 0.914 | 1.79 | 0.105
GCUGGGGGUAAAUGACUUGCACAUGAACACAAC [hsa-mir-708] | 0.578 | 0.304 | -0.0277 | -0.951 | 0.191
GCUGGUCGCGGGUUGUGGGGUUUAGGUCACCGGC [hsa-mir-5091] | 2.87 | 3.21 | 3.15 | 1.7 | 2.9
GCUGGUGACAUUGCUAAUUCAUUUCACACCAGC [hsa-mir-4293] | -0.912 | -1.31 | -0.991 | -0.642 | -0.177
GCUGUGUUGAAUGAUUGGUGAGUUUGUUUGCUCAUUGAUUGAAUCACUGC [hsa-mir-3678] | -0.307 | -0.79 | -0.734 | 0.133 | 0.121
GCUGUUGGUCGGGUUGUGACAUUGCCCGCUGUGGAGAUAACUGC [hsa-let-7i] | 1.01 | 0.207 | -0.307 | -0.338 | 0.672
GCUUAUACGUGCCCUUGCU [hsa-mir-8075] | 0.504 | 0.318 | -0.186 | -1.63 | 0.345
GCUUAUGGGGAUAUUGUGGUUGAUCUGUUCUAUCCAGAUGAC [hsa-mir-1261] | 0.626 | 0.676 | 0.283 | 0.854 | 0.0944
GCUUAUGUCAUGACCUUGGGCUACUCAGGCUGUCUGCACAAUGAGC [hsa-mir-575] | 1.66 | -0.0339 | -0.544 | -0.804 | -0.342
GCUUAUUGAUGUAGCCAACAAGC [hsa-mir-3148] | -0.384 | -0.643 | -0.527 | -0.529 | -0.225
GCUUCCGCUCUGCAGAGGC [hsa-mir-6822] | -0.438 | 0.0168 | 0.134 | -0.531 | -0.487
GCUUCUCUUUCUCACCAGCAGC [hsa-mir-4467] | -0.0165 | -0.461 | -0.543 | -1.87 | 0.152
GCUUCUGCGUUAUCUGGAAGG [hsa-mir-4706] | 0.26 | -0.25 | -0.466 | -0.078 | -0.131
GCUUCUGCUGCAUGAUCUCCGAGUCCCUGGGGGUAGAGAUGAUGGGGCACUGGGAGGU [hsa-mir-1282] | 0.851 | 0.59 | 0.113 | 0.676 | 0.312
GCUUGCUGUACAUAACUCAAUAGCCGGAAGC [hsa-mir-129-2] | 0.327 | -0.0532 | -0.0763 | -0.369 | -0.316
GCUUGCUGUUCCUCUCAACAGUAGUCAGGAAGC [hsa-mir-129-1] | -0.245 | -0.219 | -0.169 | -0.381 | -0.186
GCUUGGAGCCUUGGUAGGGAAGCAAGCUGAGGAGAUAGGA [hsa-mir-7154] | 1.92 | 1.57 | 1.22 | 1.23 | 0.627

Sequence | pull-down binding Z-score [1] | pull-down binding Z-score (TO-N3 (biotin conjugate)) | pull-down binding Z-score [2] | pull-down binding Z-score [3] | pull-down binding Z-score [4]
GCUUUAUGUCCUGACCCAGCUAAAGC [hsa-mir-22] | -0.0465 | 0.112 | 0.3 | -0.155 | -0.246
GCUUUCUGUGGUCAGAAAGAAAAGCAAGU [hsa-mir-520f] | 0.76 | 0.758 | 0.636 | 1.15 | 0.704
GCUUUUCACCUGUGAUCCCAGGAGAGGAAGC [hsa-mir-646] | 0.422 | -0.0302 | -0.299 | -0.741 | -0.0622
GGAAACUGAGACUUUGUAACUAUGUCUCAGUCUCA [hsa-mir-452] | -0.427 | -0.297 | -0.179 | -0.74 | -0.296
GGAAAGGGGAUGCAGAGCCCUGCC [hsa-mir-4647] | 1.52 | 1.44 | 1.28 | 1.97 | 0.526
GGAACACUAUAUUAAUCAGGUUUCC [hsa-mir-6509] | -0.706 | -0.631 | -0.609 | -0.0674 | -0.256
GGAAGAAGGCUGAGGGAGAUGCCUUCUUCC [hsa-mir-6512] | 1.02 | -0.155 | -0.455 | 0.436 | -0.106
GGAAGACACAUGAGCAGUGCCUCCACUUCACGCCUCUCCC [hsa-mir-6780b] | 0.746 | 0.543 | 0.265 | -1.13 | 0.0363
GGAAGGGAGCCCCAUUUACAGUGGUAACUUCCUUUCC [hsa-mir-5006] | 0.181 | 1.3 | 1.35 | -0.388 | 0.679
GGAAGGGCGCCUGUGCUUCGUCC [hsa-mir-572] | 0.767 | 0.52 | 0.31 | 0.21 | -0.215
GGAAUAGUGCUCCUGGUUGUUUC [hsa-mir-1180] | 0.243 | -0.303 | -0.548 | 0.894 | -0.353
GGAAUCCUACGUGAGGGACAAUCAUUCAGACCCACGUAGCAGUGUUCU [hsa-mir-1299] | 0.496 | 0.632 | 0.353 | 0.0519 | 0.392
GGACAGGGAUUCUUUUCACUGUU [hsa-mir-599] | 0.0602 | 0.141 | -0.0902 | 1.08 | 0.0302
GGACAUCCUUCCAUAGUAAAUAAGCGGUGCC [hsa-mir-8064] | 0.218 | -0.0974 | -0.38 | -0.584 | 0.131
GGACCCUCUCUCUACCUCU [hsa-mir-4315-1_4315-2] | 0.0855 | -0.188 | -0.211 | -0.489 | -0.12
GGACGUCACCACCAUGGCC [hsa-mir-650] | 0.358 | 0.232 | 0.0495 | -1.19 | 0.247
GGACUCAGCCCUGUGCUGAGCCC [hsa-mir-5587] | -0.961 | 0.532 | 0.722 | -0.0279 | -0.313
GGACUUGCGGUUCA [hsa-mir-8057] | 0.109 | -0.0278 | -0.0023 | -1.11 | -0.281
GGAGAAGACUUUUCCUUUCCUCC [hsa-mir-4660] | -0.545 | -0.139 | -0.1 | -0.415 | -0.212
GGAGACACUUUCACUAUAUAUAGUGGCUCC [hsa-mir-3156-2] | -1.03 | -1.34 | -0.948 | -0.175 | -0.571
GGAGACACUUUUACUAUAUAUAGUGGCUCC [hsa-mir-3156-1] | -1.51 | -1.5 | -1.09 | -0.0968 | -0.555
GGAGACCCUAUACAUACCUGUUUCC [hsa-mir-5581] | -0.354 | -0.37 | -0.408 | -2.1 | -0.187
GGAGACGGGUCUUUCUC [hsa-mir-1208] | 0.758 | 1.04 | 0.816 | -1.52 | 0.466
GGAGAGGAUCCACCUGUCCUGUCC [hsa-mir-6165] | 0.393 | 0.374 | 0.416 | 0.202 | -0.113

Sequence | pull-down binding Z-score [1] | pull-down binding Z-score (TO-N3 (biotin conjugate)) | pull-down binding Z-score [2] | pull-down binding Z-score [3] | pull-down binding Z-score [4]
GGAGAGUAUGGUCACAGCAGCAUCCUCC [hsa-mir-6780a] | 0.36 | -0.0981 | -0.0714 | 0.186 | -0.326
GGAGAUCGUACC [hsa-mir-4430] | -0.15 | -0.107 | -0.109 | -0.504 | -0.372
GGAGAUUGGAGUGGCCAGUGUUCCUAAACAAUUC [hsa-mir-4263] | 0.663 | 0.387 | 0.0793 | -0.451 | 0.226
GGAGCAGACAGACCCAACCUCAUGCUCC [hsa-mir-6763] | 0.247 | 0.219 | 0.0429 | -0.993 | -0.471
GGAGCCCGAGCAGCCGCGGUGAA [hsa-mir-7706] | 2.55 | 2.17 | 1.29 | -1.54 | 0.551
GGAGCCUUCCCCAGAGGAGUCAGGCC [hsa-mir-4312] | 1.41 | 0.698 | 0.273 | 0.386 | -0.0198
GGAGCUCAGCACCUGCCUGCCACCCACGCAGACCAGCCCCUGCUCUGUUCCCACAG [hsa-mir-4648] | 1.9 | 1.56 | 0.85 | -0.622 | 0.329
GGAGCUCUGUCCUGUCUCACUCAUUGCUCC [hsa-mir-6749] | 0.177 | -0.473 | -0.331 | -0.199 | -0.272
GGAGCUCUGUGCCUUUGGGUCCUGGUGAGCUCU [hsa-mir-6070] | 0.681 | 0.413 | 0.271 | 0.246 | -0.129
GGAGCUGGCUGCUGGCCUCAGUUCU [hsa-mir-5001] | 1.05 | 0.0865 | -0.269 | -1.38 | -0.449
GGAGGCACUGCCAGGGCUGCCCAC [hsa-mir-1202] | 2.09 | 1.21 | 0.521 | -0.43 | 0.277
GGAGGCAUGAAUGAGCCAUCUUUCCAAUGCCUUUC [hsa-mir-4743] | 0.952 | -0.118 | -0.573 | -1.03 | -0.332
GGAGGCCCCGCCCUGCUGCCGACCCUGUGGAGCGGAGGGUGAAGCCUCC [hsa-mir-3180-5] | 1.98 | 1.1 | 0.326 | 0.844 | 0.0715
GGAGGCCCCGCUCUGCUGCCGACCCUGUGGAGCGGAGGGUGAAGCCUCC [hsa-mir-3180-4] | 1.24 | 0.553 | 0.3 | 1.15 | 0.118
GGAGGGUGAGCUUUCUGAAAACCCCUCC [hsa-mir-188] | -0.0757 | 0.328 | 0.345 | 0.536 | 0.358
GGAGUCCUCUAGACACC [hsa-mir-6510] | -0.175 | 0.373 | 0.483 | -0.716 | -0.348
GGAGUUGAUGCACAGUUAUCCAGCUCC [hsa-mir-337] | -0.0382 | -0.495 | -0.577 | -0.406 | -0.326
GGAUAAGAAUCAGUCAC [hsa-mir-217] | -0.147 | -0.415 | -0.334 | -0.462 | 0.259
GGAUAGAAACUAUUAUUCUAUUC [hsa-mir-664a] | -1.38 | -0.784 | -0.357 | -0.818 | -0.303
GGAUCAUGUUUGCCCCCGUGGACAGCUCUCUGGUGUGCUCCUCCUGCCAUCCUGCCCACCCCUGCAUAAUGCUGCUUC [hsa-mir-6809] | 1.5 | 1.02 | 0.306 | -1.25 | 0.384
GGAUCCCAGAUCAAACCAGGCCC [hsa-mir-331] | 0.63 | -0.177 | -0.36 | -0.859 | -0.114
GGAUGAAAGUCAAAGAAUCC [hsa-mir-1262] | 0.0488 | 1.17 | 1.25 | -0.564 | 0.0666
GGAUGGCCAGGGAAGUAUGCCGGGCCUUGGCAUUUC [hsa-mir-7159] | 1.9 | 0.814 | 0.218 | 2.04 | 0.175
